One test concerns the target CaM (Homo sapiens, UniProt P0DP23). The test is described as follows: steady-state fluorescence anisotropy.
The target in another test is T1, S100A1 (Homo sapiens, UniProt P23297).
T1 chain: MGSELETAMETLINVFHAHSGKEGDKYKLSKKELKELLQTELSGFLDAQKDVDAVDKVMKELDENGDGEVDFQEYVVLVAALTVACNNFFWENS
The test is described as follows: steady-state fluorescence anisotropy.

No end group written: not given here. *: point of attachment. FITC = O=C1OC2(c3ccc(O)cc3Oc3cc(O)ccc32)c2ccc(NC(=S)*)cc21

With {FITC}-LIGRAYRSNYTRKHFR [TRPM6np], the Kd with CaM was 14.9 µM; with S100A1, 17.8 µM.

(Values after publication PMC6770577 (2019).)
